Test results: patent publication US20230037911A1 (SHANGHAI HENLIUS BIOTECH, published 2023)
Each block holds one binder with its values, some of them ahead of it.

B1: human TIGIT stably expressed on cells (Jurkat; 293T) (receptor)
chain: MMTGTIETTGNISAEKGGSIILQCHLSSTTAQVTQVNWEQQDQLLAICNADLGWHISPSFKDRVAPGPGLGLTLQSLTVNDTGEYFCIYHTYPDGTYTGRIFLEVLESSVAEHGARFQIPLLGAMAATLVVICTAVIVVVALTRKKKALRIHSVEGDLRRKSAGQEEWSPSAPSPPGSCVQAEAAPAGLCGEQRGEDCAELHDYFNVLSYRSLGNCSFFTETG
notes: the expression vector's insert is not described further; also called h-TIGIT; human TIGIT transfected Jurkat cells

Key:
[1] = biological target: T1, 3G7 bivalent VHH antibody (VHH with human CH2 and CH3) (human, UniProt P01857-1 104-330 = IgG part, limits assumed); assay: flow cytometry, whole cell binding on Jurkat cells stably expressing human TIGIT; Alexa Fluor 488 anti-human IgG Fc secondary
T1 construct: domain: CH2 and CH3
Source text: (§1) FIGS. 1A-1C depict whole cell binding of representative VHH bivalent antibodies to human TIGIT determined by flowcytometry assays. […] Y axis represents Mean Fluorescence Intensity of AlexaFlour 488. X axis represents antibody concentrations in nanomolar. […] FIG. 1C is a schematic of the structure of a TIGIT VHH bivalent antibody.
(§2) Jurkat cells stably expressing human TIGIT and NFAT reporter gene were established. Specifically, Jurkat cells were transfected with human TIGIT expression vector by electroporation, and cells stably expressing human TIGIT were selected by 1 μg/ml puromycin during cell culture. Representative antibody clones were incubated at different concentrations with h-TIGIT stably expressing Jurkat cells (0.2×10⁶/ml) in 100 μl/well in 96-well plate in FACS buffer (PBS with 1.5% FBS) for 30 min. After washing, Alexaflour 488 conjugated anti-human IgG Fc secondary antibody (Alexa Fluor® 488 AffiniPure Goat Anti-Human IgG, Fcγ fragment specific, Jackson labs, 1:500 dilution) was added and incubated for 30 min. After washing, mean fluorescence intensity was measured using CytoFlex (Beckman Coulter) by gating live cell population. Binding affinity was calculated using GraphPad Prism.

[2] = biological target: T2, 2B7 bivalent VHH antibody (VHH with human CH2 and CH3) (human, UniProt P01857-1 104-330 = IgG part, limits assumed); assay: as above
T2 construct: domain: CH2 and CH3; Expressed in ExpiCHO, Protein A purified
Source text: as §1, §2

[3] = biological target: T3, 3G6 bivalent VHH antibody (VHH with human CH2 and CH3) (human, UniProt P01857-1 104-330 = IgG part, limits assumed); assay: as above
T3 construct: domain: CH2 and CH3
Source text: as §1, §2

[4] = biological target: T4, 2B10 bivalent VHH antibody (VHH with human CH2 and CH3) (human, UniProt P01857-1 104-330 = IgG part, limits assumed); assay: as above
T4 construct: domain: CH2 and CH3
Source text: as §1, §2

[5] = biological target: T5, 13H11 bivalent VHH antibody (VHH with human CH2 and CH3) (human, UniProt P01857-1 104-330 = IgG part, limits assumed); assay: as above
T5 construct: domain: CH2 and CH3
Source text: as §1, §2

[6] = biological target: T6, 15A5 bivalent VHH antibody (VHH with human CH2 and CH3) (human, UniProt P01857-1 104-330 = IgG part, limits assumed); assay: as above
T6 construct: domain: CH2 and CH3
Source text: as §1, §2

[7] = biological target: T7, 1G1-F-A-ERES humanized bivalent antibody (human, UniProt P01857-1 104-330 = IgG part, limits assumed); assay: flow cytometry, whole cell binding on h-TIGIT transfected Jurkat cells; anti-human IgG Fc AlexaFluor488 secondary
T7 construct: domain: CH2 and CH3; Called humanized bivalent antibody; the Fc part is not restated
Experimental: (§3) The binding affinities of the humanized bivalent antibodies to human TIGIT were determined by whole cell binding to h-TIGIT stably expressed on Jurkat cells. Briefly, antibodies were incubated with h-TIGIT transfected Jurkat cells (0.2×10⁶/well in 100 μl) for 30 min in FACS buffer. The cells were washed once, then incubated with anti-human IgG Fc AlexaFluor488 (1:500).

[8] = biological target: T8, 1C12-EREW humanized bivalent antibody (human, UniProt P01857-1 104-330 = IgG part, limits assumed); assay: as above
T8 construct: domain: CH2 and CH3; Called humanized bivalent antibody; the Fc part is not restated; also called 1C12 (F-EREW)
Experimental: as §3

[9] = biological target: T9, 1C12-EREF humanized bivalent antibody (human, UniProt P01857-1 104-330 = IgG part, limits assumed); assay: as above
T9 construct: domain: CH2 and CH3; Called humanized bivalent antibody; the Fc part is not restated; also called 1C12 (F-EREF)
Experimental: as §3

[10] = biological target: T10, 1G1-F-G-ERES humanized bivalent antibody (human, UniProt P01857-1 104-330 = IgG part, limits assumed); assay: as above
T10 construct: domain: CH2 and CH3; Called humanized bivalent antibody; the Fc part is not restated
Experimental: as §3

[11] = biological target: T11, 1C12-GLEW humanized bivalent antibody (human, UniProt P01857-1 104-330 = IgG part, limits assumed); assay: as above
T11 construct: domain: CH2 and CH3; Called humanized bivalent antibody; the Fc part is not restated; also called 1C12(F-GLEW)
Experimental: as §3

[12] = biological target: B1; assay: flow cytometry, whole cell binding on Jurkat cells stably expressing human TIGIT; Alexa Fluor 488 anti-human IgG Fc secondary
Source text: as §1, §2

[13] = biological target: B1; assay: cell-based or functional assay
[14] = biological target: B1; assay: flow cytometry, whole cell binding on h-TIGIT transfected Jurkat cells; anti-human IgG Fc AlexaFluor488 secondary
Experimental: as §3

[15] = biological target: T12, recombinant ECD of human FcγRIIIA (human, UniProt P08637 17-208); assay: Octet (ForteBio) biolayer interferometry; sensor loaded with recombinant ECD of human FcγRIIIA; antibody at 5 concentrations (not given)
T12 construct: extracellular domain
Source text: (§4) Y axis represents association, dissociation & Rmax. X axis represents time in second.

[16] = biological target: T13, recombinant ECD of mouse FcγRIV (mouse, UniProt A0A0B4J1G0 21-203); assay: Octet (ForteBio) biolayer interferometry; sensor loaded with recombinant ECD of mouse FcγRIV; antibody at 5 concentrations (not given)
T13 sequence: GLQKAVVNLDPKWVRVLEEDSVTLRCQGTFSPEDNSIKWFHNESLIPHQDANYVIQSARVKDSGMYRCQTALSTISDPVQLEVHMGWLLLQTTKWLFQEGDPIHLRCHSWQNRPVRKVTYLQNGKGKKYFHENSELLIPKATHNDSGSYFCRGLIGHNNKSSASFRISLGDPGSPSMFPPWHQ
Source text: as §4

[17] = biological target: T14, recombinant ECD of human FcγRIIB (human, UniProt P31994 43-217); assay: Octet (ForteBio) biolayer interferometry; sensor loaded with recombinant ECD of human FcγRIIB; antibody at 5 concentrations (not given)
T14 construct: extracellular domain
T14 sequence (looked up): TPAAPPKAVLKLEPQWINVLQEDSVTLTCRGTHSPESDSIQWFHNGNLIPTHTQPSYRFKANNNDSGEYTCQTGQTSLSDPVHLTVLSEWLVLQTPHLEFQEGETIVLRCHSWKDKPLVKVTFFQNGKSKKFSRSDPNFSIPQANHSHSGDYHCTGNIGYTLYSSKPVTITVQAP
Source text: as §4

[18] = biological target: T15, recombinant human TIGIT extra cellular domain (ECD) protein (human, UniProt Q495A1 22-138); assay: ELISA, VHH in supernatant
T15 construct: Purchased protein; it begins with the signal peptide; also called h-TIGIT ECD; human TIGIT ECD
T15 sequence: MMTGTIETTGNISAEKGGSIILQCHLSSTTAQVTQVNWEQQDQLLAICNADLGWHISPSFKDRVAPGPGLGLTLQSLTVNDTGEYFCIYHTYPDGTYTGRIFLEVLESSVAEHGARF

T5 sequence (P01857 other isoform, or with tags, fused parts or gaps limits assumed): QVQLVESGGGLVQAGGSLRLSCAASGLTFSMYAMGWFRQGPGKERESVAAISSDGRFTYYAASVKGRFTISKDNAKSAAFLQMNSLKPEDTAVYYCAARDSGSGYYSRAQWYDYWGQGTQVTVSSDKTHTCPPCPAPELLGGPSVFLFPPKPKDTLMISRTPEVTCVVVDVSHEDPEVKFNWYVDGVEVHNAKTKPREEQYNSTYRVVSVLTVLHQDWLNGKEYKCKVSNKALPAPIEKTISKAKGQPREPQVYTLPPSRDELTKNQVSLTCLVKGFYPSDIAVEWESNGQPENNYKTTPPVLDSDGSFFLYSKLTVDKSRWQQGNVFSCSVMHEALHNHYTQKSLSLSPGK
T6 sequence (P01857 other isoform, or with tags, fused parts or gaps limits assumed): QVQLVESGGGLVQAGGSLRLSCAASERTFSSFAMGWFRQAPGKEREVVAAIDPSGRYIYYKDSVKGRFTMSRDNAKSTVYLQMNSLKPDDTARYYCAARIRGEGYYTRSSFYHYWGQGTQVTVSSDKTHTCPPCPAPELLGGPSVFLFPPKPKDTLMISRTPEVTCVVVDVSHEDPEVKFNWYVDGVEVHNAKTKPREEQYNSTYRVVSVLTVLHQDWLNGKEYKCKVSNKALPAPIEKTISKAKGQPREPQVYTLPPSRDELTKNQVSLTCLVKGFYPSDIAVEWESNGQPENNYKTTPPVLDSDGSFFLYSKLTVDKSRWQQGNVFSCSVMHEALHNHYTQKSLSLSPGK
T1 sequence (P01857 other isoform, or with tags, fused parts or gaps limits assumed): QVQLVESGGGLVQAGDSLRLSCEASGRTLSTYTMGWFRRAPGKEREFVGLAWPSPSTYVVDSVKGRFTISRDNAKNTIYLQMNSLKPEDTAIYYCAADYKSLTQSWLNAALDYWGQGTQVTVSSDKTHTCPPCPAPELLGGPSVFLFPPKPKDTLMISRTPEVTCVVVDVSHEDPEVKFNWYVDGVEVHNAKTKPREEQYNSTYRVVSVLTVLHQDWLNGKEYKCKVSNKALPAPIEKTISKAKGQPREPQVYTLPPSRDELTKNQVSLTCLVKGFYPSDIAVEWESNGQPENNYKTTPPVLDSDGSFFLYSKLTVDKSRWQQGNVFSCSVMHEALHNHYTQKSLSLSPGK
T3 sequence (P01857 other isoform, or with tags, fused parts or gaps limits assumed): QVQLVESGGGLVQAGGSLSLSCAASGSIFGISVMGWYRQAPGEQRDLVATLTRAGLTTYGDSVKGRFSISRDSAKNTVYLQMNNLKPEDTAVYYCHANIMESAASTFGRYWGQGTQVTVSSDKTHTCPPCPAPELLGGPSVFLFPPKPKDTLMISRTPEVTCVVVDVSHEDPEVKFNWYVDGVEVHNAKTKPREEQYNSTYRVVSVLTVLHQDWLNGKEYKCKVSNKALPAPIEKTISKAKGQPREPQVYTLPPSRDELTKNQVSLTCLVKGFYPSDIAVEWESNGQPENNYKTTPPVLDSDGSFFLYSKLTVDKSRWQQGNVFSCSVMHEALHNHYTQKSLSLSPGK
T2 sequence (P01857 other isoform, or with tags, fused parts or gaps limits assumed): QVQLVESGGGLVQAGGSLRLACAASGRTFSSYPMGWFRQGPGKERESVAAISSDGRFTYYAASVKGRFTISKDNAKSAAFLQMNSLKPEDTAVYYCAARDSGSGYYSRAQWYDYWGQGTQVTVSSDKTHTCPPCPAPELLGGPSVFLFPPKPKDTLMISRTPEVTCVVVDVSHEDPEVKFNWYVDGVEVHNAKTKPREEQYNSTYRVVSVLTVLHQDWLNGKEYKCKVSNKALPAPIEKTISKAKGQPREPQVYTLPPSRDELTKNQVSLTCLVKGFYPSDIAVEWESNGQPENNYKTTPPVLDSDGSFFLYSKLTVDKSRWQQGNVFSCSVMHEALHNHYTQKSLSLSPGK
T12 sequence (P08637 17-208): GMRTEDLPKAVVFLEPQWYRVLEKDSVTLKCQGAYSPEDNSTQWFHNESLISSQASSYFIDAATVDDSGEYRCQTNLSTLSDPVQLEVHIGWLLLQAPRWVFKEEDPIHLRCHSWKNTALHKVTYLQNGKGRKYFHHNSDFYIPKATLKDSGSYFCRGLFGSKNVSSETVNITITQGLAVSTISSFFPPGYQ
T4 sequence (P01857 other isoform, or with tags, fused parts or gaps limits assumed): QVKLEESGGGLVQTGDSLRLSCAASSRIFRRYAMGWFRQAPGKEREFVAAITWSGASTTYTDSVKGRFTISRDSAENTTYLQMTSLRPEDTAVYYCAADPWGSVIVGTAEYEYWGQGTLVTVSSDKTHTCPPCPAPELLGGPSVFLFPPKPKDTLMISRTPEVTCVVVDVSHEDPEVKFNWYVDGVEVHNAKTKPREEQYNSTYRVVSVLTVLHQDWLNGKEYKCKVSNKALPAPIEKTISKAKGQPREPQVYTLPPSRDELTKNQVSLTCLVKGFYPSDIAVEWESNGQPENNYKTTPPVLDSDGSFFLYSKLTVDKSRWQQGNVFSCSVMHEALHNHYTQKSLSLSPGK

Binder: B1
binding result [1]: binds | binding result [2]: binds | binding result [3]: binds | binding result [4]: binds | binding result [5]: binds | binding result [6]: binds | binding result [7]: binds | binding result [8]: binds | binding result [9]: binds | binding result [10]: binds | binding result [11]: binds

EC50 (read off the curve) [12]: ~0.1 nM | EC50 (read off the curve); NFAT luciferase reporter (RLU), h-TIGIT/NFAT Jurkat cells with PVR Raji cells and SEE [13]: ~1 nM | EC50 (read off the curve) [14]: ~0.08 nM
B2: 1G1-chimeric (llama VHH of 1G1 with human IgG1 CH2 and CH3 domains), bivalent (Fc fusion)
chain: QVQLVESGGGLVQAGDSLRLSCVASGPSFSSYPMGWFRQGPGKERESVAAISSDGRFTYYAASVKGRFTISKDNAKSAAFLQMNSLKPEDTAVYYCAARDSGSGYYSRAQWYDYWGQGTLVTVSS
notes: also called 1G1 chimeric clone; not shown: human IgG1 CH2 and CH3 domains

binding result [15]: binds | binding result [16]: binds | binding result [17]: binds
B3: 2A3-LT-Fc VLPLL (Fc mutations L235V, F243L, R292P, Y300L and P396L) (Fc fusion)
chain: QVQLVESGGGVVQPGRSLRLSCAASGGSFSSYPMGWFRQAPGKERESVAAISSDLRFTYYADSVKGRFTISRDNSKNTLYLQMNSLRAEDTAVYYCAARTSGVGYYSRAQWYDYWGQGTLVTVSSEPKSCDKTHTCPPCPAPELVGGPSVFLLPPKPKDTLMISRTPEVTCVVVDVSHEDPEVKFNWYVDGVEVHNAKTKPPEEQYNSTLRVVSVLTVLHQDWLNGKEYKCKVSNKALPAPIEKTISKAKGQPREPQVYTLPPSREEMTKNQVSLTCLVKGFYPSDIAVEWESNGQPENNYKTTPLVLDSDGSFFLYSKLTVDKSRWQQGNVFSCSVMHEALHNHYTQKSLSLSPGK
notes: also called VLPLL mutant; VPVLL (as printed once)

EC50 (read off the curve) [12]: ~0.04 nM | EC50 (read off the curve); NFAT luciferase reporter (RLU), h-TIGIT/NFAT Jurkat cells with PVR Raji cells and SEE [13]: ~0.8 nM | EC50 (read off the curve) [14]: ~0.03 nM
B4: 1C12-chimeric (llama VHH of 1C12 with human IgG1 CH2 and CH3 domains), bivalent (Fc fusion)
chain: QVQLVESGGGLVQTGDSLRLSCAASSRIFSRYGMGWFRQAPGKEREFVAAISWNGASTTYTDSVKGRFTISRDSAENTTYLQINSLRPEDTAVYYCAADPWGAVKLGTAEYEYWGQGTQVTVSS
notes: also called 1C12 chimeric parental clone; not shown: human IgG1 CH2 and CH3 domains

binding result [18]: binds
B5: 1G1-1C12 VHH (VHH)
VHH: QVQLVESGGGVVQPGRSLRLSCAASGPSFSSYPMGWFRQAPGKERESVAAISSDLRFTYYADSVKGRFTISRDNSKNTLYLQMNSLRAEDTAVYYCAARDSGSGYYSRKQWYDYWGQGTLVTVSS
notes: VHH in bacterial supernatant
